Test results taken from paper PMC11154711 (2024).

What was measured:
Assay in all cases: BLI
OTUB1 V173K [1] = molecular target: T1, OTUB1 V173K (human, UniProt Q96FW1 1-271, V173K)
OTUB1 F133A [2] = molecular target: T2, OTUB1 F133A (human, UniProt Q96FW1 1-271, F133A)
OTUB1 V173D [3] = molecular target: T3, OTUB1 V173D (human, UniProt Q96FW1 1-271, V173D)
OTUB1 V173K [4] = molecular target: T1, OTUB1 V173K; remark: listed apart in the source
OTUB1 F133A [5] = molecular target: T2, OTUB1 F133A; remark: listed apart in the source
OTUB1 V173D [6] = molecular target: T3, OTUB1 V173D; remark: listed apart in the source

Kd (OTUB1 V173K [1]): 1.76 µM | Kd (OTUB1 F133A [2]): 46.7 µM | Kd (OTUB1 V173D [3]): 3.02 µM | koff (OTUB1 V173K [4]): 0.006 s⁻¹ | koff (OTUB1 F133A [5]): 0.005 s⁻¹ | koff (OTUB1 V173D [6]): 0.004 s⁻¹
B1: Ubc13 (E2 ubiquitin-conjugating enzyme) (enzyme)
chain: MAGLPRRIIKETQRLLAEPVPGIKAEPDESNARYFHVVIAGPQDSPFEGGTFKLELFLPEEYPMAAPKVRFMTKIYHPNVDKLGRICLDILKDKWSPALQIRTVLLSIQALLSAPNPDDPLANDVAEQWKTNEAQAIETARAWTRLYAMNNI
